Results taken from patent US20160340421A1.
pKd: −log10 of the molar value. Each block holds one substance with its values, some of them ahead of it.

Experiments:
[1] = molecular target: Human GDF8 homodimer (mature human Growth and Differentiation Factor-8) (human) (UniProt O14793); assay: SPR Biacore T100, captured on anti-hFc, 25°C
[2] = molecular target: hGDF11 homodimer (human) (UniProt O95390); assay: SPR Biacore T100, captured on anti-hFc, 25°C
[3] = molecular target: GDF8/TGFβ[48-72] chimera (T48): GDF8.1-47.TGFβ1.49-76.GDF8.73-109 (human GDF8 with human TGFβ-1 sequence); assay: cell-based or functional assay
Target sequence (chain, as listed by the source mutant limits assumed): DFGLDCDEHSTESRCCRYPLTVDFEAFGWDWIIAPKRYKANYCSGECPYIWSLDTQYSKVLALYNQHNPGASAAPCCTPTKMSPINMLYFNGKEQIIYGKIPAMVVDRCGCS

[4] = molecular target: Human GDF8 homodimer (mature human Growth and Differentiation Factor-8) (human) (UniProt O14793); assay: cell-based or functional assay
[5] = molecular target: hGDF11 homodimer (human) (UniProt O95390); assay: cell-based or functional assay
[6] = molecular target: Human GDF8 homodimer (mature human Growth and Differentiation Factor-8) (human) (UniProt O14793); assay: SPR Biacore T100, captured on anti-hFc, 37°C
[7] = molecular target: hGDF11 homodimer (human) (UniProt O95390); assay: SPR Biacore T100, captured on anti-hFc, 37°C
[8] = molecular target: Human GDF8 homodimer (mature human Growth and Differentiation Factor-8) (human) (UniProt O14793); assay: Luminex: hGDF8 beads with 1.25 µg/ml antibody, then Activin RIIB-mFc; MFI of bound Activin RIIB-mFc (n=3)
[9] = molecular target: Human GDF8 homodimer (mature human Growth and Differentiation Factor-8) (human) (UniProt O14793); assay: SPR, antibody captured, 25 nM antigen
[10] = molecular target: hGDF11 homodimer (human) (UniProt O95390); assay: SPR, antibody captured, 25 nM antigen
[11] = molecular target: Human GDF8 homodimer (mature human Growth and Differentiation Factor-8) (human) (UniProt O14793); assay: SPR, antibody captured, buffer without BSA
[12] = molecular target: hGDF11 homodimer (human) (UniProt O95390); assay: SPR, antibody captured, buffer without BSA

hGDF11 homodimer (human), sequence (O95390 299-407 limits assumed): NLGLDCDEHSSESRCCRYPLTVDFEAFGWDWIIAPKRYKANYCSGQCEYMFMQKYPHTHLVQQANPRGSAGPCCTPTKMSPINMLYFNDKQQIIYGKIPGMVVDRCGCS
Human GDF8 homodimer (mature human Growth and Differentiation Factor-8) (human), sequence (O14793 267-375): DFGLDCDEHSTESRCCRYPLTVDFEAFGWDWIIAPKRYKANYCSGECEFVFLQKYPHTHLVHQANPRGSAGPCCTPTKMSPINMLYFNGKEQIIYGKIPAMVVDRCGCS

pKd [1]: 10.99
T1/2 [1]: 4.55 h
pKd [2]: 10.84
T1/2 [2]: 3.68 h
approximate IC50, luciferase bioassay with GDF8/TGFβ[48-72] conditioned medium [3]: 0.402 nM
IC50, GDF8-inducible luciferase, A204/Smad2 cells, 0.8 nM GDF8 [4]: 0.62 nM
IC50, luciferase bioassay, 0.5 nM GDF8 [4]: 0.172 nM
IC50, luciferase bioassay, 1 nM GDF8 [4]: 0.398 nM
IC50, GDF11-inducible luciferase, A204/Smad2 cells, 0.8 nM GDF11 [5]: 0.94 nM
IC50, luciferase bioassay, 0.4 nM GDF11 [5]: 0.255 nM
IC50, luciferase bioassay, 0.8 nM GDF11 [5]: 0.459 nM
pKd [6]: 10.61
T1/2 [6]: 1.17 h
pKd [7]: 10.56
T1/2 [7]: 0.933 h
MFI [8]: 58
pKd [9]: 10.30
T1/2 [9]: 3.18 h
pKd [10]: 10.10
T1/2 [10]: 2.27 h
pKd [11]: 11.70
T1/2 [11]: 21.7 h
pKd [12]: 12.00
T1/2 [12]: 1.75 h
Substance: Control I: human anti-GDF8 antibody with the heavy and light chain variable regions of Myo29

MFI [8]: 4560
Substance: Negative Control (Table 11)
